# Source: US20170184603A1 (MORPHOTEK, published 2017)
# Target: T1, purified FR-α (UniProt P15328 25-234, limits assumed)
# T1 construct: also called folate receptor-alpha; alpha-folate receptor
# Test: surface plasmon resonance spectroscopy
# T1 sequence (P15328 25-234 limits assumed): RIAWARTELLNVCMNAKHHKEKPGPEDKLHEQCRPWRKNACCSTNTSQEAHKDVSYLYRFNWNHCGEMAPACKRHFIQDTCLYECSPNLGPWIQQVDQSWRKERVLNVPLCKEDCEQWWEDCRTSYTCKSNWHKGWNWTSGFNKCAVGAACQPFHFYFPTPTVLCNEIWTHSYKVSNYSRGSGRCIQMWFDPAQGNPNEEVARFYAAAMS
binder,measurement,value
"anti-FR-α antibody comprising a heavy chain comprising an amino acid sequence of SEQ ID NO:5 and a light chain comprising an amino acid sequence of SEQ ID NO:2 (antibody, human IgG1, kappa, V domains shown, also called antibody of the invention; humanized anti-FR-α antibody) VH: EVQLVESGGGVVQPGRSLRLSCSASGFTFSGYGLSWVRQAPGKGLEWVAMISSGGSYTYYADSVKGRFAISRDNAKNTLFLQMDSLRPEDTGVYFCARHGDDPAWFAYWGQGTPVTVSS VL: DIQLTQSPSSLSASVGDRVTITCSVSSSISSNNLHWYQQKPGKAPKPWIYGTSNLASGVPSRFSGSGSGTDYTFTISSLQPEDIATYYCQQWSSYPYMYTFGQGTKVEIKR",Kd,2.23 nM
same,koff,~0.000502 s⁻¹
same,kon,~225000 M⁻¹ s⁻¹
